Data from US20120277161A1, “INHIBITION OF MULTIPLE CELL ACTIVATION PATHWAYS” (INTER-K PTY LIMITED, priority 2009, published 2012).
Ends that are not written are not given here.

What was measured:
MEK1 (h) (human) = MEK1 (h) (human) (UniProt Q02750); experiment: cell-based or functional assay
human ERK2 (human) = human ERK2 (human) (UniProt P28482); experiment: cell-based or functional assay
human ERK2 (human), sequence (P28482 whole entry): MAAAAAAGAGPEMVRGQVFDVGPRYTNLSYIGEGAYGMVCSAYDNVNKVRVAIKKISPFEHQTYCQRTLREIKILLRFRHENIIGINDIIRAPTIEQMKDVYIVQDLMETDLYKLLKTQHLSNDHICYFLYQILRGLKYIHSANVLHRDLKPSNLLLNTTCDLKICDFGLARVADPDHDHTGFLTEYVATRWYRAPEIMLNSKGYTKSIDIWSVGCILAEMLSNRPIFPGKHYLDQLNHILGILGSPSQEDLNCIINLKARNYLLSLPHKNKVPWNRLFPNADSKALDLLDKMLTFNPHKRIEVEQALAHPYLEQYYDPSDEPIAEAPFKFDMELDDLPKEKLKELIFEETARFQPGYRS

RSRARNPLYR (peptide, part only, also: 10 copies on 10-mer dendrimer framework) [peptide dendrimer Dend 10β5 presenting 10 monomer units of the β5 integrin derived peptide …]
% inhibition of kinase activity, cell-free assay, dendrimer at 20 µM (MEK1 (h) (human)): 92 % inhibition | % inhibition of kinase activity, cell-free assay, dendrimer at 20 µM (human ERK2 (human)): 96 % inhibition
